In the RNAGym collection of RNA variant scans (doi:10.7554/elife.80360):

B1: HDV Ribozyme (parent)
chain: GGCCGGCAUGGUCCCAGCCUCCUCGCUGGCGCCGGCUGGGCAACAUUCCGAGGGGACCGUCCCCUCGGUAAUGGCGAAUGGGACCCA

Variants of: B1
Experiment: self-cleavage, relative activity (ratio to wild type); higher = more cleavage; co-transcriptional
In the case of GGCCGGCAUGGUCCCAGCCUCCUCGCUGGCGCCGGCUGGGCAACAUUCCGAGGGGACGGUCCCCUCGGUAAAGGCGAAUGGGACCCA [C58G U72A], the self-cleavage is reported as 0.594. For GGCCGGCAUGGUCCCAGCCUCCUCGCUGGCGCCGGCUGGGCAACAUUCCGAGGGGACUAUCCCCUCGGUAAUGGCGAAUGGGACCCA [C58U G59A], the self-cleavage was 1.12. With GGCCGGCAUGGUCCCAGCCUCCUCGCUGGCGCCGGCUGGGCAACAUUCCGAGGGGACUCUCCCCUCGGUAAUGGCGAAUGGGACCCA [C58U G59C] the self-cleavage was 0.923. GGCCGGCAUGGUCCCAGCCUCCUCGCUGGCGCCGGCUGGGCAACAUUCCGAGGGGACGGUCCCCUCGGUAAUGGCGAAGGGGACCCA [C58G U79G] showed a self-cleavage of 0.776. GGCCGGCAUGGUCCCAGCCUCCUCGCUGGCGCCGGCUGGGCAACAUUCCGAGGGGACUGUCCCCUCGGUAAUGGCGAAUGGGACCCU [C58U A87U] showed a self-cleavage of 0.915. Variant GGCCGGCAUGGUCCCAGCCUCCUCGCUGGCGCCGGCUGGGCAACAUUCCGAGGGGACUGUCCCCUCGGUAAUGGCGAAUGGGACCCC [C58U A87C] has a self-cleavage of 0.905. GGCCGGCAUGGUCCCAGCCUCCUCGCUGGCGCCGGCUGGGCAACAUUCCGAGGGGACGGUCCCCUGGGUAAUGGCGAAUGGGACCCA [C58G C66G] gave a self-cleavage of 0.95. GGCCGGCAUGGUCCCAGCCUCCUCGCUGGCGCCGGCUGGGCAACAUUCCGAGGGGACUGUCCCCUCGGUAAUGCCGAAUGGGACCCA [C58U G74C] gave a self-cleavage of 0.227. GGCCGGCAUGGUCCCAGCCUCCUCGCUGGCGCCGGCUGGGCAACAUUCCGAGGGGACUGUCCCCUCGGUAAUGUCGAAUGGGACCCA [C58U G74U] showed a self-cleavage of 0.51. For GGCCGGCAUGGUCCCAGCCUCCUCGCUGGCGCCGGCUGGGCAACAUUCCGAGGGGACUGUCCCCUCGGUAAUGGCGAGUGGGACCCA [C58U A78G], the self-cleavage was 0.77. Variant GGCCGGCAUGGUCCCAGCCUCCUCGCUGGCGCCGGCUGGGCAACAUUCCGAGGGGACCAUCCCCUCGGUAAUGCCGAAUGGGACCCA [G59A G74C] has a self-cleavage of 0.198. In the case of GGCCGGCAUGGUCCCAGCCUCCUCGCUGGCGCCGGCUGGGCAACAUUCCGAGGGGACCAUCCCCUCGGUAAUGGCGACUGGGACCCA [G59A A78C], the self-cleavage is reported as 0.282. In the case of GGCCGGCAUGGUCCCAGCCUCCUCGCUGGCGCCGGCUGGGCAACAUUCCGAGGGGACGGUCCCCUCGGUAAUGACGAAUGGGACCCA [C58G G74A], the self-cleavage is reported as 0.499. For GGCCGGCAUGGUCCCAGCCUCCUCGCUGGCGCCGGCUGGGCAACAUUCCGAGGGGACCAUCCCCUCGGUAAUGGCGAAUGGGACUCA [G59A C85U], the self-cleavage was 0.796. Work on GGCCGGCAUGGUCCCAGCCUCCUCGCUGGCGCCGGCUGGGCAACAUUCCGAGGGGACCAUCCCUUCGGUAAUGGCGAAUGGGACCCA [G59A C64U] yielded a self-cleavage of 0.903. GGCCGGCAUGGUCCCAGCCUCCUCGCUGGCGCCGGCUGGGCAACAUUCCGAGGGGACCAUCCCGUCGGUAAUGGCGAAUGGGACCCA [G59A C64G] showed a self-cleavage of 0.831. GGCCGGCAUGGUCCCAGCCUCCUCGCUGGCGCCGGCUGGGCAACAUUCCGAGGGGACGGUCCCCUCGGAAAUGGCGAAUGGGACCCA [C58G U69A] showed a self-cleavage of 0.911. GGCCGGCAUGGUCCCAGCCUCCUCGCUGGCGCCGGCUGGGCAACAUUCCGAGGGGACGGUCCCCUCGGCAAUGGCGAAUGGGACCCA [C58G U69C] showed a self-cleavage of 1.36. With GGCCGGCAUGGUCCCAGCCUCCUCGCUGGCGCCGGCUGGGCAACAUUCCGAGGGGACGGUCCCCUCGGGAAUGGCGAAUGGGACCCA [C58G U69G] the self-cleavage was 1.17. Work on GGCCGGCAUGGUCCCAGCCUCCUCGCUGGCGCCGGCUGGGCAACAUUCCGAGGGGACCAUCCCCUCGGUAAUGGCAAAUGGGACCCA [G59A G76A] yielded a self-cleavage of 1.07. GGCCGGCAUGGUCCCAGCCUCCUCGCUGGCGCCGGCUGGGCAACAUUCCGAGGGGACUGUCCCCUCGGUAAUGGGGAAUGGGACCCA [C58U C75G] showed a self-cleavage of 0.116. In the case of GGCCGGCAUGGUCCCAGCCUCCUCGCUGGCGCCGGCUGGGCAACAUUCCGAGGGGACGGUCCCCUCGGUAAUGGCAAAUGGGACCCA [C58G G76A], the self-cleavage is reported as 1. Work on GGCCGGCAUGGUCCCAGCCUCCUCGCUGGCGCCGGCUGGGCAACAUUCCGAGGGGACGGUCCCCUCGGUAAUGGCCAAUGGGACCCA [C58G G76C] yielded a self-cleavage of 0.914. GGCCGGCAUGGUCCCAGCCUCCUCGCUGGCGCCGGCUGGGCAACAUUCCGAGGGGACUGUCCCCUCGGUAAUGGCGAAGGGGACCCA [C58U U79G] gave a self-cleavage of 0.612. GGCCGGCAUGGUCCCAGCCUCCUCGCUGGCGCCGGCUGGGCAACAUUCCGAGGGGACUGUCCCCUCGGUAAUGGCGAACGGGACCCA [C58U U79C] gave a self-cleavage of 0.38. For GGCCGGCAUGGUCCCAGCCUCCUCGCUGGCGCCGGCUGGGCAACAUUCCGAGGGGACUGUCCCCUCUGUAAUGGCGAAUGGGACCCA [C58U G67U], the self-cleavage was 1.12. With GGCCGGCAUGGUCCCAGCCUCCUCGCUGGCGCCGGCUGGGCAACAUUCCGAGGGGACUGUCGCCUCGGUAAUGGCGAAUGGGACCCA [C58U C62G] the self-cleavage was 0.812. GGCCGGCAUGGUCCCAGCCUCCUCGCUGGCGCCGGCUGGGCAACAUUCCGAGGGGACUGUGCCCUCGGUAAUGGCGAAUGGGACCCA [C58U C61G] gave a self-cleavage of 0.967. Variant GGCCGGCAUGGUCCCAGCCUCCUCGCUGGCGCCGGCUGGGCAACAUUCCGAGGGGACCAUCCCCUCGGUAAUUGCGAAUGGGACCCA [G59A G73U] has a self-cleavage of 0.267. GGCCGGCAUGGUCCCAGCCUCCUCGCUGGCGCCGGCUGGGCAACAUUCCGAGGGGACCAUCCCCUCGGUAAUGGCGAAUGGGACCCU [G59A A87U] gave a self-cleavage of 0.974. GGCCGGCAUGGUCCCAGCCUCCUCGCUGGCGCCGGCUGGGCAACAUUCCGAGGGGACCAUCCCCUCGGUAAUGGCGAAUGGGACCCA [G59A] gave a self-cleavage of 1.02. GGCCGGCAUGGUCCCAGCCUCCUCGCUGGCGCCGGCUGGGCAACAUUCCGAGGGGACUGUCCCCACGGUAAUGGCGAAUGGGACCCA [C58U U65A] gave a self-cleavage of 1.17.
